Reference: PMC13017536 (Nature, 2026)

Target: T1, His-tagged LetA (N-terminal 6×His2xQH-TEV-tagged LetA) (E. coli, UniProt P0AD03 1-427)
T1 sequence (looked up): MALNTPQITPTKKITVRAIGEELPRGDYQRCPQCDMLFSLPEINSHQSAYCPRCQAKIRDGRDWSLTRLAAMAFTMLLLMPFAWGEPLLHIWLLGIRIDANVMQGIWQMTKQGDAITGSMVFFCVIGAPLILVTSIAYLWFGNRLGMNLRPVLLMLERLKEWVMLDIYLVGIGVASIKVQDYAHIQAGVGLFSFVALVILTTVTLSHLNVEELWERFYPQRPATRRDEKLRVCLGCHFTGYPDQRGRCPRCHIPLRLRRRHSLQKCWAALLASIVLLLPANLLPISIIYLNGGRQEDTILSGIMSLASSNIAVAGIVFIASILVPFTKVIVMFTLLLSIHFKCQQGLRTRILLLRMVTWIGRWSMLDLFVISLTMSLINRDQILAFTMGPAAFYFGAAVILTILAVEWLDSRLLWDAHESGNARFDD
Assay: cryo-EM structure

- stoichiometry N: 6 LetB per LetA
B1: LetB (lipophilic envelope-spanning tunnel B), untagged (natural protein, E. coli, UniProt P76272 1-877, looked up)
chain: MSQETPASTTEAQIKNKRRISPFWLLPFIALMIASWLIWDSYQDRGNTVTIDFMSADGIVPGRTPVRYQGVEVGTVQDISLSDDLRKIEVKVSIKSDMKDALREETQFWLVTPKASLAGVSGLDALVGGNYIGMMPGKGKEQDHFVALDTQPKYRLDNGDLMIHLQAPDLGSLNSGSLVYFRKIPVGKVYDYAINPNKQGVVIDVLIERRFTDLVKKGSRFWNVSGVDANVSISGAKVKLESLAALVNGAIAFDSPEESKPAEAEDTFGLYEDLAHSQRGVIIKLELPSGAGLTADSTPLMYQGLEVGQLTKLDLNPGGKVTGEMTVDPSVVTLLRENTRIELRNPKLSLSDANLSALLTGKTFELVPGDGEPRKEFVVVPGEKALLHEPDVLTLTLTAPESYGIDAGQPLILHGVQVGQVIDRKLTSKGVTFTVAIEPQHRELVKGDSKFVVNSRVDVKVGLDGVEFLGASASEWINGGIRILPGDKGEMKASYPLYANLEKALENSLSDLPTTTVSLSAETLPDVQAGSVVLYRKFEVGEVITVRPRANAFDIDLHIKPEYRNLLTSNSVFWAEGGAKVQLNGSGLTVQASPLSRALKGAISFDNLSGASASQRKGDKRILYASETAARAVGGQITLHAFDAGKLAVGMPIRYLGIDIGQIQTLDLITARNEVQAKAVLYPEYVQTFARGGTRFSVVTPQISAAGVEHLDTILQPYINVEPGRGNPRRDFELQEATITDSRYLDGLSIIVEAPEAGSLGIGTPVLFRGLEVGTVTGMTLGTLSDRVMIAMRISKRYQHLVRNNSVFWLASGYSLDFGLTGGVVKTGTFNQFIRGGIAFATPPGTPLAPKAQEGKHFLLQESEPKEWREWGTALPK
